Results: patent US6946265 (Xencor, dated 2005)

T1: full-length human growth hormone receptor (hGHR) (human, UniProt P10912 19-638)
T1 sequence (looked up): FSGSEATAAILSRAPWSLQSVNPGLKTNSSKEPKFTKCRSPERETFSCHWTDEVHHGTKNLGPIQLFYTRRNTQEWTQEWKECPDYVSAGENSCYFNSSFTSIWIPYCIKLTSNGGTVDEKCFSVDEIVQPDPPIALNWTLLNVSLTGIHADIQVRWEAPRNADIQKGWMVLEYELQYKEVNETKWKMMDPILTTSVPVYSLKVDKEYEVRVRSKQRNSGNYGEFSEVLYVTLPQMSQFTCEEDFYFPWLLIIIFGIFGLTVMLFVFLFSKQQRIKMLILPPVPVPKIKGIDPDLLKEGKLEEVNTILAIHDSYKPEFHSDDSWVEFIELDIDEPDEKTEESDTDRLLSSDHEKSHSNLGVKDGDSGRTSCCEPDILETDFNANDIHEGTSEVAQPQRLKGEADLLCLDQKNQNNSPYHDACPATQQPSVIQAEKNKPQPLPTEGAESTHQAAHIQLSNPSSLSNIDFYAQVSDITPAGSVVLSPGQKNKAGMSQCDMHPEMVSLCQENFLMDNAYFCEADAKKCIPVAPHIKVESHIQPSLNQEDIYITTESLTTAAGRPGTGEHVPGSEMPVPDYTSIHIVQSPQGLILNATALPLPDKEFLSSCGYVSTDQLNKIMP


Molecular target: T1, full-length human growth hormone …
Assay: cell-based or functional assay

ED50, cell proliferation (MTT assay) of FDC-P1 cells transfected with hGHR | Binder
320 | GHA protein mutant b (A13V, T27V, S79A, V90I, G161M, S184A) (ligand) FPTIPLSRLFDNVMLRAHRLHQLAFDVYQEFEEAYIPKEQKYSFLQNPQTSLCFSESIPTPSNREETQQKSNLELLRIALLLIQSWLEPIQFLRSVFANSLVYGASDSNVYDLLKDLEEGIQTLMGRLEDGSPRTGQIFKQTYSKFDTNSHNDDALLKNYMLLYCFRKDMDKVETFLRIVQCRAVEGSCGF
260 | GHA protein mutant d (A13V, T27V, S55A, S79A, S85A, V90I, G161M, S184A) (ligand) FPTIPLSRLFDNVMLRAHRLHQLAFDVYQEFEEAYIPKEQKYSFLQNPQTSLCFAESIPTPSNREETQQKSNLELLRIALLLIQAWLEPIQFLRSVFANSLVYGASDSNVYDLLKDLEEGIQTLMGRLEDGSPRTGQIFKQTYSKFDTNSHNDDALLKNYMLLYCFRKDMDKVETFLRIVQCRAVEGSCGF
230 | GHA protein mutant f (A13V, T27V, Y28F, F54Y, S55A, S79A, S85A, V90I, G161M, S184A) (ligand) FPTIPLSRLFDNVMLRAHRLHQLAFDVFQEFEEAYIPKEQKYSFLQNPQTSLCYAESIPTPSNREETQQKSNLELLRIALLLIQAWLEPIQFLRSVFANSLVYGASDSNVYDLLKDLEEGIQTLMGRLEDGSPRTGQIFKQTYSKFDTNSHNDDALLKNYMLLYCFRKDMDKVETFLRIVQCRAVEGSCGF
